Experimental data published in PMC3470569, “Probing Subunit-Subunit Interactions in the Yeast Vacuolar ATPase by Peptide Arrays” (PLoS ONE, 2012).
Ends that are not written are not given here. cellulose = not defined here

B1: D(111-130) (peptide)
peptide: SYIDPEINDFRLTGLGRGGQ-cellulose
modifications: reading uncertain
notes: The promiscuous, 'sticky' peptide that was detected by most probes including MBP alone; source: synthetic peptide, spotted on glass slide array (Intavis)
B2: d(151-170) (peptide, UniProt P32366 151-170, looked up)
peptide: TVLVDTPLAPYFKNCFDTAE-cellulose
modifications: reading uncertain
notes: source: synthetic peptide, spotted on glass slide array (Intavis)
B3: H(271-290) (peptide, UniProt P41807 271-290, looked up)
peptide: FLDLLKLVKITIKEKVSRLC-cellulose
modifications: reading uncertain
notes: as for B2
B4: D(161-180) (peptide, UniProt P32610 161-180, looked up)
peptide: EVIKVTNRRVNAIEHVIIPR-cellulose
modifications: reading uncertain
notes: as for B2
B5: a(371-390) (peptide, UniProt P32563 371-390, looked up)
peptide: LDTNHTPPTFHRTNKFTAGF-cellulose
modifications: reading uncertain
notes: as for B2
B6: H(221-240) (peptide, UniProt P41807 221-240, looked up)
peptide: ATDSQLATRIVATNSNHLGI-cellulose
modifications: reading uncertain
notes: as for B2
B7: B(349-368) (peptide, UniProt P16140 349-368, looked up)
peptide: LTGYITEGQIFVDRQLHNKG-cellulose
modifications: reading uncertain
notes: as for B2
B8: F(91-110) (peptide, UniProt P39111 91-110, looked up)
peptide: ILEIPSKDHPYDPEKDSVLK-cellulose
modifications: reading uncertain
notes: V-ATPase subunit F, S. cerevisiae, residues 91-110; source: synthetic peptide, spotted on glass slide array (Intavis)
B9: C(11-30) (peptide, UniProt P31412 11-30, looked up)
peptide: FILISLPQNAQPVTAPGSKT-cellulose
modifications: reading uncertain
notes: V-ATPase subunit C, S. cerevisiae, residues 11-30; source: synthetic peptide, spotted on glass slide array (Intavis)
B10: A(205-224) (peptide, UniProt P17255 205-224, looked up)
peptide: GKKSDFTLYHTWPVRVPRPV-cellulose
modifications: reading uncertain
notes: as for B2
B11: B(61-80) (peptide, UniProt P16140 61-80, looked up)
peptide: TVRQGQVLEIRGDRAIVQVF-cellulose
modifications: reading uncertain
notes: V-ATPase subunit B, S. cerevisiae, residues 61-80; source: synthetic peptide, spotted on glass slide array (Intavis)
B12: C(181-200) (peptide, UniProt P31412 181-200, looked up)
peptide: PEDFVLNSEHLTTVLVAVPK-cellulose
modifications: reading uncertain
notes: as for B2
B13: a(451-470) (peptide, UniProt P32563 451-470, looked up)
peptide: RGEIFDMAFTGRYIILLMGV-cellulose
modifications: reading uncertain
notes: as for B2
B14: a(281-300) (peptide, UniProt P32563 281-300, looked up)
peptide: LSDLYTVLKTTSTTLESELY-cellulose
modifications: reading uncertain
notes: as for B2
B15: a(291-310) (peptide, UniProt P32563 291-310, looked up)
peptide: TSTTLESELYAIAKELDSWF-cellulose
modifications: reading uncertain
notes: as for B2
B16: H(91-110) (peptide, UniProt P41807 91-110, looked up)
peptide: DCKKSVQNLIAELLSSDKYG-cellulose
modifications: reading uncertain
notes: V-ATPase subunit H (Vma13p), S. cerevisiae, residues 91-110; source: synthetic peptide, spotted on glass slide array (Intavis)
B17: E(51-70) (peptide, UniProt P22203 51-70, looked up)
peptide: VRNETNNIDGNFKSKLKKAM-cellulose
modifications: reading uncertain
notes: V-ATPase subunit E (Vma4p), S. cerevisiae, residues 51-70; source: synthetic peptide, spotted on glass slide array (Intavis)
B18: H(181-200) (peptide, UniProt P41807 181-200, looked up)
peptide: DTCYVCIRLLQELAVIPEYR-cellulose
modifications: cysteine pairing not given here; reading uncertain
notes: as for B2

molecular target: maltose binding protein (MBP) only (UniProt P0AEX9 27-396 = MBP); assay: peptide or protein array; 20-mer peptides linked at their C-terminal end to cellulose and spotted in duplicate on glass slides; blocked in 2% nonfat milk; purified probe at 4 µM in TBS for 1 hour at 4°C; bound probe detected through MBP or FLAG with HRP-coupled antibody (chemiluminescence); hits by ANOVA (p 0.05, Bonferroni) and HCL in MeV, score of at least 1 in 75% of the spots; settings: both partners purified

Binding result, binds:
B1

molecular target: T1, full-length subunit H (Vma13p), N-terminal MBP fusion (S. cerevisiae, UniProt P41807 1-478); assay: as above; settings: both partners purified
T1 construct: V-ATPase subunit H (Vma13p), S. cerevisiae, 478 amino acids; Construct provided by the laboratory of Dr. Patricia Kane; also called MBP-H; source: E. coli, purified (amylose column; ultrafiltration or size exclusion chromatography); not shown: MBP, N-terminal, kept
T1 sequence (looked up): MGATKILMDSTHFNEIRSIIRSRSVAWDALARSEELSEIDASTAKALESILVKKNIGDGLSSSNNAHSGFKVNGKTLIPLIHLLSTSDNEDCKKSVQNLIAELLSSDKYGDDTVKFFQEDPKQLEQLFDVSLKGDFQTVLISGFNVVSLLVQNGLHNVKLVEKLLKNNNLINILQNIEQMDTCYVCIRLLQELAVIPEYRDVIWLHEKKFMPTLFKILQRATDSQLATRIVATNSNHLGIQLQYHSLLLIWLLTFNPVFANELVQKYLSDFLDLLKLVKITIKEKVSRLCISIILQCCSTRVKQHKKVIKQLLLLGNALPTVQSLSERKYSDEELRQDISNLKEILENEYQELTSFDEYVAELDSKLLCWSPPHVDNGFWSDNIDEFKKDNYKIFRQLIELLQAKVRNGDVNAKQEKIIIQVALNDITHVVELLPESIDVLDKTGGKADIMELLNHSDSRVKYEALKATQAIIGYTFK

Binding result, binds:
B2

molecular target: T2, subunit G (Vma10p) with FLAG tag (S. cerevisiae, UniProt P48836 1-114); assay: as above; settings: both partners purified
T2 construct: V-ATPase subunit G (Vma10p), S. cerevisiae, 114 amino acids; also called G-FLAG; FLAG-G; source: E. coli, from the bicistronic MBP-FLAG-G / E construct, purified (amylose, PreScission cleavage of MBP, DEAE, amylose); not shown: MBP, N-terminal, cleaved
T2 sequence (looked up): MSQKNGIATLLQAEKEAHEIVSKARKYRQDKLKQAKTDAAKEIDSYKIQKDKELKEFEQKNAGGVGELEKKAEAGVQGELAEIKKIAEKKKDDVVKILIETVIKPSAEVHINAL

Binding result, binds:
B3
B4
B5
B6
B7
B8

molecular target: T1, full-length subunit H (Vma13p), …; assay: as above; settings: both partners purified; remark: another data set of the same source

Binding result, binds:
B3
B7
B8

molecular target: T3, C-terminal domain of subunit H (HCT), N-terminal MBP fusion (S. cerevisiae, UniProt P41807 353-478); assay: as above; settings: both partners purified
T3 construct: V-ATPase subunit H (Vma13p), S. cerevisiae, C-terminal globular domain 353-478 (126 amino acids); Construct provided by the laboratory of Dr. Patricia Kane; also called MBP-HCT; source: E. coli, purified (amylose column; ultrafiltration or size exclusion chromatography); not shown: MBP, N-terminal, kept
T3 sequence (looked up): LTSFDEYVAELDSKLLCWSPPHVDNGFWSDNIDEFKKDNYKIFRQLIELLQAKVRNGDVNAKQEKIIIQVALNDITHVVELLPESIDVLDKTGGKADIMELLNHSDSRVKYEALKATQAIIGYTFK

Binding result, binds:
B5
B9
B6
B10

molecular target: T4, full-length subunit C, N-terminal MBP fusion (S. cerevisiae, UniProt P31412 1-392); assay: as above; settings: both partners purified
T4 construct: V-ATPase subunit C, S. cerevisiae, 392 amino acids; also called MBP-C; source: E. coli, purified (amylose column); not shown: MBP, N-terminal, kept
T4 sequence (looked up): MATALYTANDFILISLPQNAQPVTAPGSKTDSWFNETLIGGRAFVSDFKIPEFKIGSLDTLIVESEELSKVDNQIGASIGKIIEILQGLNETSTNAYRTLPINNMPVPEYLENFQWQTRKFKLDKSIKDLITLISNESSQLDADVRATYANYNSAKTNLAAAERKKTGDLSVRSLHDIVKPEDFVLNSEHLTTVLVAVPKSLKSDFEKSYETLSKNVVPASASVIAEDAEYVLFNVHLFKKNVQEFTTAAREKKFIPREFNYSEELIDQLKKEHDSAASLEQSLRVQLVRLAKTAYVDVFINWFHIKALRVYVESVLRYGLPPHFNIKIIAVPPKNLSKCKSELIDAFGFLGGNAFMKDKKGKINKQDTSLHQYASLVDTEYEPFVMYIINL

Binding result, binds:
B11
B12
B9
B10
B13

molecular target: T5, subunit E (Vma4p), N-terminal MBP fusion (S. cerevisiae, UniProt P22203 1-233); assay: as above; settings: both partners purified
T5 construct: V-ATPase subunit E (Vma4p), S. cerevisiae, 233 amino acids; also called MBP-E; source: E. coli, purified (amylose column); not shown: MBP, N-terminal, kept
T5 sequence (looked up): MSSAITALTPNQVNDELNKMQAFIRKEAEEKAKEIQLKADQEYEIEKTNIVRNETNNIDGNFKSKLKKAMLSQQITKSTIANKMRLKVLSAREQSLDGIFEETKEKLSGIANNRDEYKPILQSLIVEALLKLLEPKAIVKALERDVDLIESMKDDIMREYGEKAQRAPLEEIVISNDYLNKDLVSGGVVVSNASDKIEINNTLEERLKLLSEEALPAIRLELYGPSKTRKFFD

Binding result, binds:
B2
B14

molecular target: T6, EG heterodimer (untagged subunit E with FLAG-tagged subunit G) (S. cerevisiae, UniProt P22203 1-233; P48836 1-114); assay: as above; settings: both partners purified
T6 construct: V-ATPase subunit E (Vma4p), S. cerevisiae, tagless; V-ATPase subunit G (Vma10p), S. cerevisiae; also called EG-FLAG; source: E. coli, co-expressed from one bicistronic plasmid, purified (amylose, PreScission cleavage of MBP, DEAE, amylose); not shown: MBP, N-terminal, cleaved; FLAG, N-terminal, kept
T6 sequence (looked up) 1: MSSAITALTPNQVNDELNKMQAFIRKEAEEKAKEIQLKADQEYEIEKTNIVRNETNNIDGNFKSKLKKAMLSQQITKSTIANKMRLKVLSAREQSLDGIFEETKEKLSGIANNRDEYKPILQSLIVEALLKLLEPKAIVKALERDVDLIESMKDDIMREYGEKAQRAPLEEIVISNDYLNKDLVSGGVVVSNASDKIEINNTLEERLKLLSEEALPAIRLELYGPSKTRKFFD
T6 sequence (looked up) 2: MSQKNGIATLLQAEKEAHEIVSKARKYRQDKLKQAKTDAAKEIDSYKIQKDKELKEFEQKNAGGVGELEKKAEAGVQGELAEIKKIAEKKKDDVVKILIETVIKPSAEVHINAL

Binding result, binds:
B15
B16
B17
B14
B8
B18
